The experiment addresses early pandemic (Wuhan) SARS-CoV-2 RBD (SARS-CoV-2, UniProt P0DTC2). Description: SPR. Particulars: both partners purified.

B1: EY6A mAb (IgG) (antibody, V domains shown)
VH: EVQLVESGGGVVQPGRSLRLSCAASAFTFSSYDMHWVRQAPGKGLEWVAVISYDGSNKYYADSVKGRFTISRDNSKNTLYLQMNSLRAEDTAVYYCAKDGGKLWVYYFDYWGQGTLVTVSS
VL: not shown
In the case of B1, binding was put at a Kd of 7.8 nM.

These data come from paper doi:10.1101/2021.12.03.471045 (bioRxiv, 2021).
